Results as given in patent US20010006793A1, “MODULATORS OF EUKARYOTIC CASPASES” (priority 1998, published 2001).

Molecular target: T1, human caspase-8β (Homo sapiens, UniProt Q14790)
T1 construct: expressed in transfected cells; host or cells: Saccharomyces cerevisiae FY250, single-copy ARS/CEN vector YCpGAL1-caspase-8β-L, GAL1 promoter
Test: Yeast screening method: suppression of caspase-8β-induced lethality in S. cerevisiae FY250 double transformants on galactose medium
Format: cell-based
Details: for Caspase Inhibitor: Table 1 Caspase Modulators, identified using the screening method of the invention; for identified as a caspase inhibitor (product of human brain cDNA suppressing caspase-8β-induced cell death): FY250 double transformants, GAL1-driven expression, galactose-containing medium
Text: The invention includes a screening method of determining whether a compound is a caspase modulator. […] A difference between the viability indicator of the first cell and the viability indicator of the second cell is an indication that the compound is a caspase modulator.
As described herein, the transformant expresses the caspase when an inducer of the inducible promoter of the caspase vector is provided to the caspase transformant. When the caspase transformant expresses the caspase, cytotoxicity ensues in the caspase transformant. If an inhibitor of the caspase is provided to the caspase transformant prior to the onset of cytotoxicity, the caspase transformant may be enabled to survive expression of the caspase or the onset of cytotoxicity may be delayed.
The gene encoding p35 was cloned into a yeast-based expression vector designated YCpGAL1-U (wherein U designates a URA3 selectable marker) to yield a YCpGAL1-p35-U inhibitor vector. Yeast cells were co-transformed with the inhibitor vector, YCpGAL1-p35-U, and with the caspase vector, YCpGAL1-caspase-8β-L, to yield a double transformant. Double transformants were plated on SC-leucine-uracil medium supplemented with dextrose to repress GAL1 promoter function. Serial ten-fold dilutions of individual double transformants grown in SC-leucine-uracil medium containing dextrose were prepared and spotted onto SC-leucine-uracil medium comprising dextrose or galactose.
Individual viable colonies of double transformant are isolated, and the test vector comprising the unknown cDNA is isolated.
The screening method used in this Example was performed as follows. A yeast double transformant was prepared by transforming S. cerevisiae strain FY250 with two yeast expression vectors. The first yeast expression vector comprised cDNA encoding a self-activating form of human caspase-8β operably linked to a GAL1 promoter and a LEU2 selectable marker. This first vector was a single copy vector and was designated YCpGAL1-caspase-8β-L. A plurality of second yeast expression vectors was used, each comprising a single random human cDNA sequence operably linked to a GAL1 promoter and a URA3 selectable marker. The cDNA sequences used to generate the plurality of second yeast expression vectors were obtained from a library of cDNAs prepared from human brain cells. The second vectors were multicopy vectors.
Double transformants were propagated on plates containing SC-leucine-uracil agar comprising dextrose. Colonies of double transformants were replica plated on plates containing medium comprising galactose, whereby expression of caspase-8β and of any product encoded by the cDNA of the second vector was induced. […] The second vector was recovered from individual colonies of double transformants which were able to survive on the galactose-containing medium and used, along with the first vector, to transform fresh FY250 cells. […] The identity of individual products encoded by the cDNA of individual second vectors was established by determining the nucleotide sequence of the cDNA and comparing the sequence with databases of known human gene sequences, including Genbank, the EST Database, and the Human Genome Database.

T1 sequence (Q14790 1-464 isoform Q14790-2): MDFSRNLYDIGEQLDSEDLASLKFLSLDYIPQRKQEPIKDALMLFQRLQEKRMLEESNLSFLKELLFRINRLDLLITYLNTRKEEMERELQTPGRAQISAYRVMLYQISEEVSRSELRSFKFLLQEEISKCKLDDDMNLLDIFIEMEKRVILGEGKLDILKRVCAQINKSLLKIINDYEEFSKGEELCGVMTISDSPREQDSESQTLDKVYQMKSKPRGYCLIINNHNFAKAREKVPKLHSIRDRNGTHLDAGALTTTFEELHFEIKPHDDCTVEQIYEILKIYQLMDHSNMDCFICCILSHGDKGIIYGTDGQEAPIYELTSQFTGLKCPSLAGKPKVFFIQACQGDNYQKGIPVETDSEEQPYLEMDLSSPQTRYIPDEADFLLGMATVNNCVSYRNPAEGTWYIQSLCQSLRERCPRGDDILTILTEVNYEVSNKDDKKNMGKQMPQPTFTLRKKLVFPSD

Row | Molecule | Caspase Inhibitor | identified as a caspase inhibitor (product of human brain cDNA suppressing caspase-8β-induced cell death) | survival of double transformants on galactose-containing test medium (FY250 co-transformed with YCpGAL1-p35-U and YCpGAL1-caspase-8β-L, SC-leucine-uracil medium with galactose)
1 | Glutamate-Binding Subunit of a Human NMDA Receptor Complex: product encoded by human brain cDNA, identified as caspase inhibitor (protein) MSHEKSFLVSGDNYPPPNPGYPGGPQPPMPPYAQPPYPGAPYPQPPFQPSPYGQPGYPHGPSPYPQGGYPQGPYPQGGYPQGPYPQEGYPQGPYPQGGYPQGPYPQSPFPPNPYGQPQVFPGQDPDSPQHGNYQEEGPPSYYDNQDFPATNWDDKSIRQAFIRKVFLVLTLQLSVTLSTVSVFTFVAEVKGFVRENVWTYYVSYAVFFISLIVLSCCGDFRRKHPWNLVALSVLTASLSYMVGMIASFYNTEAVIMAVGITTAVCFTVVIFSMQTRYDFTSCMGVLLVSMVVLFIFAILCIFIRNRILEIVYASLGALLFTCFLAVDTQLLLGNKQLSLSPEEYVFAALNLYTDIINIFLYILTIIGRAKE | ✓ | – | –
2 | Human Death Associated Protein 1: product encoded by human brain cDNA; also known as DAP-1 (protein) MSSPPEGKLETKAGHPPAVKAGGMRIVQKHPHTGDTKEEKDKDDQEWESPSPPKPTVFISGVIARGDKDFPPAAAQVAHQKPHASMDKHPSPRTQHIQQPRK | ✓ | caspase inhibitor | –
3 | Human Myelin Basic Protein: product encoded by human brain cDNA, identified as caspase inhibitor (protein) MASQKRPSQRHGSKYLATASTMDHARHGFLPRHRDTGILDSIGRFFGGDRGAPKRGSGKDSHHPARTAHYGSLPQKSHGRTQDENPVVHFFKNIVTPRTPPPSQGKGRGLSLSRFSWGAEGQRPGFGYGGRASDYKSAHKGFKGVDAQGTLSKIFKLGGRDSRSGSPMARR | ✓ | caspase inhibitor | –
4 | Human hnRNP D: product encoded by human brain cDNA, identified as caspase inhibitor (protein, UniProt Q14103 2-355, looked up) Heterogeneous nuclear …: SEEQFGGDGAAAAATAAVGGSAGEQEGAMVAATQGAAAAAGSGAGTGGGTASGGTEGGSAESEGAKIDASKNEEDEGHSNSSPRHSEAATAQREEWKMFIGGLSWDTTKKDLKDYFSKFGEVVDCTLKLDPITGRSRGFGFVLFKESESVDKVMDQKEHKLNGKVIDPKRAKAMKTKEPVKKIFVGGLSPDTPEEKIREYFGGFGEVESIELPMDNKTNKRRGFCFITFKEEEPVKKIMEKKYHNVGLSKCEIKVAMSKEQYQQQQQWGSRGGFAGRARGRGGGPSQNWNQGYSNYWNQGYGNYGYNSQGYGGYGGYDYTGYNNYYGYGDYSNQQSGYGKVSRRGGHQNSYKPY | ✓ | caspase inhibitor | –
5 | Human Ubiquitin C-terminal Hydrolase: product encoded by human brain cDNA; also known as UHX1 (protein) MAVAPRLFGGLCFRFRDQNPEVAVEGRLPISHSCVGCRRERTAMATVAANPAAAAAAVAAAAAVTEDREPQHEELPGLDSQWRQIENGESGRERPLRAGESWFLVEKHWYKQWEAYVQGGDQDSSTFPGCINNATLFQDEINWRLKEGLVEGEDYVLLPAAAWHYLVSWYGLEHGQPPIERKVIELPNIQKVEVYPVELLLVRHNDLGKSHTVQFSHTDSIGLVLRTARERFLVEPQEDTRLWAKNSEGSLDRLYDTHITVLDAALETGQLIIMETRKKDGTWPSAQLHVMNNNMSEEDEDFKGQPGICGLTNLGNTCFMNSALQCLSNVPQLTEYFLNNCYLEELNFRNPLGMKGEIAEAYADLVKQAWSGHHRSIVPHVFKNKVGHFASQFLGYQQHDSQELLSFLLDGLHEDLNRVKKKEYVELCDAAGRPDQEVAQEAWQNHKRRNDSVIVDTFHGLFKSTLVCPDCGNVSVTFDPFCYLSVPLPISHKRVLEVFFIPMDPRRKPEQHRLVVPKKGKISDLCVALSKHTGISPERMMVADVFSHRFYKLYQLEEPLSSILDRDDIFVYEVSGRIEAIEGSREDIVVPVYLRERTPARDYNNSYYGLMLFGHPLLVSVPRDRFTWEGLYNVLMYRLSRYVTKPNSDDEDDGDEKEDDEEDKDDVPGPSTGGSLRDPEPEQAGPSSGVTNRCPFLLDNCLGTSQWPPRRRRKQLFTLQTVNSNGTSDRTTSPEEVHAQPYIAIDWEPEMKKRYYDEVEAEGYVKHDCVGYVMKKAPVRLQECIELFTTVETLEKENPWYCPSCKQHQLATKKLDLWMLPEILIIHLKRFSYTKFSREKLDTLVEFPIRDLDFSEFVIQPQNESNPELYKYDLIAVSNHYGGMRDGHYTTFACNKDSGQWHYFDDNSVSPVNENQIESKAAYVLFYQRQDVARRLLSPAGSSGAPASPACSSPPSSEFMDVN | ✓ | caspase inhibitor | –
6 | Viral protein p35: known viral protein caspase inhibitor, expressed from YCpGAL1-p35-U vector (protein) MCVIFPVEIDVSQTIIRDCQVDKQTRELVYINKIMNTQLTKPVLMMFNISGPIRSVTRKNNNLRDRIKSKVDEQFDQLERDYSDQMDGFHDSIKYFKDEHYSVSCQNGSVLKSKFAKILKSHDYTDKKSIEAYEKYCLPKLVDERNDYYVAVCVLKPGFENGSNQVLSFEYNPIGNKVIVPFAHEINDTGLYEYDVVAYVDSVQFDGEQFEEFVQSLILPSSFKNSEKVLYYNEASKNKSMIYKALEFTTESSWGKSEKYNWKIFCNGFIYDKKSKVLYVKLHNVTSALNKNVILNTIK | ✓ | – | survived on this medium
7 | Human Tissue Inhibitor of Metalloprotease-3: product encoded by human brain cDNA, identified as caspase inhibitor (protein) CTCSPSHPQDAFCNSDIVIRAKVVGKKLVKEGPFGTLVYTIKQMKMYRGFTKMPHVQYIHTEASESLCGLKLEVNKYQYLLTGRVYDGKMYTGLCNFVERWDQLTLSQRKGLNYRYHLGCNCKIKSCYYLPCFVTSKNECLWTDMLSNFGYPGYQSKHYACIRQKGGYCSWYRGWAPPDKSIINATDP | ✓ | caspase inhibitor | –
